Target: SARS-CoV-2 RBD (RWT), wild-type Wuhan Hu-1 receptor-binding domain, residues 319-533 (SARS-CoV-2 Wuhan Hu-1)
Test: BLI

B1: COVA2-15 (class 2 RBD-directed antibody) (antibody, V domains shown)
VH: QVQLLESGGGLVQPGGSLRLSCAASGFTFSSYAMSWVRQAPGKGLEWASAISGSGGSTYYADSVEGRFTISRDNSKNTLYLQMNSLRAEDTAVYYCAKDTGYCGDDCYIKLIRGGPDYWGQGTLVTVSS
VL: DIVMTQSPLSLPVTLGQPASISCRSSQSLVYSDGNTFLNWFQQRPGQSPRRLIYQVSNRDSGVPDRFSGSGSGTDFTLKISRVEAEDVGVYYCMQGTHWPRTFGQGTKLEIK
**Q.** For B1, which koff is on record?
**A.** 0.0025 s⁻¹
